The test system of data set [1] is Cc1cc(=O)oc2cc(NC(=O)[C@H](CCCNC(=N)N)NC(=O)[C@@H]3CCCN3C(=O)[C@@H](NC(=O)OC(C)(C)C)C(C)C)ccc12. Briefly: Substrate KM for protease screen, KLK5. The class given is biochemical. As to conditions: other: KLK5. How it is done: (§1) Crude macrocyclic libraries (4 mM DMSO stocks in 384-well LDV plates were transferred into 1536-well microtiter OptiPlates via ADE. Applied buffered solutions were prepared by filtration through PTFE syringe filters (0.22 μm) and assays were initiated by addition of protease (4.41 μl/well) in appropriate buffer (see list below) supplemented with bovine serum albumin (BSA; 0.1% w/v) and dispensed using a CERTUS automated liquid handler. Plates were incubated for 10 min at ambient temperature before fluorogenic substrate in appropriate buffer (4.5 μl) was added using a CERTUS automated liquid handler. Plates were centrifugated (800 g, 2 min) and fluorescence intensity was measured using a PHERAstar plate reader (excitation 384 nm, emission 440 nm) in time increments of 150 s over 15 min. Slopes of fluorescence increase (m) were calculated with Microsoft Excel (vers. 16.56). Negative controls were prepared without macrocycle. An average of 12 negative controls was used to calculate residual activities using Equation I below: […]
(§2) where [S]0 is the initial substrate concentration and KM is the Michaelis-Menten constant^12 for the enzyme and substrate.

The subject of data set [2] is Cc1cc(=O)oc2cc(NC(=O)[C@H](CCCNC(=N)N)NC(=O)[C@H](Cc3ccccc3)NC(=O)OCc3ccccc3)ccc12. Description: Substrate KM for protease screen, PKal. The class given is biochemical. As to conditions: other: PKal. The method, then:
as §1, §2

Usually Km stands for the substrate concentration at which the rate is half of its maximum.

Sequence of PKal (Homo sapiens) (chain, as listed by the source): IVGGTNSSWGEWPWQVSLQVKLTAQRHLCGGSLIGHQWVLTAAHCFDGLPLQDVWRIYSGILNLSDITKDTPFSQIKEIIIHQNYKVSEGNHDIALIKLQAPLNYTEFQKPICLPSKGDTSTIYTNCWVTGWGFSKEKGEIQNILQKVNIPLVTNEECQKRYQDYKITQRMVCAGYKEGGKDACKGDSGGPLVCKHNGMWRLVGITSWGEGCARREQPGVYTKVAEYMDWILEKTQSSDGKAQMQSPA

Consider KLK5 (Homo sapiens), for which, in data set [1], the Km is 200 ± 10 µM.

In the case of PKal (Homo sapiens), the Km in data set [2] was found to be 120 ± 28 µM.

Values taken from patent US20240279845A1, “METHOD FOR PREPARING A LIBRARY OF PEPTIDES OR A PEPTIDE” (ECOLE POLYTECHNIQUE FEDERALE DE LAUSANNE (EPFL), priority 2021, published 2024).
